# Measured values from paper doi:10.1101/2023.01.09.523197.
# B1: amtB scaffold (dsDNA)
# DNA 1: CTTCGTCACGGCGGCGAAACAACGAGGGGCTTCCACCGAAACCGCGCTGCGTTATAATGGGAGCTGTCACGGATGCA
# DNA 2: TGCATCCGTGAGTCGAGGGTAATAAACGCAGCGCGGTTTCGGTGGAAGCCCCTCGTTGTTTCGCCGCCGTGACGAAG
# Molecular target: GlnR;RNAP holoenzyme (Mycobacterium …, UniProt O53830;P9WGZ1;P9WGY9;P9WGY7;P9WGY5;P9WGI1 1-255;1-347;1-1178;1-1316;1-110;1-528, |)
# Assay: cryo-EM
binder,measurement,value
B1,binding result,binds
